# Paper PMC9371724 (2022)
# T1: hemagglutinin (HA) of pandemic 2009 H1N1 (pHA, HA69) peptide on HLA-DQA1*01:02 / HLA-DQB1*06:02 (human)
# T1 peptide: AMERNAGSGIIISDT
# T2: HA69 peptide on HLA DQB1*06:02/DQA1*01:02 (DQ0602) (human)
# T2 peptide: AMERNAGSGIIISDT
# Biological target: T1, hemagglutinin (HA) of pandemic 2009 …
# Assay: activation reporter or marker
row,Binder,binding result
1,TCR CIVRVATNQAGTALIF / CASSTQGAFAEAFF (TCR) alpha TRAV26-1 TRAJ15 CDR3: CIVRVATNQAGTALIF beta TRBV19 TRBJ1-1 CDR3: CASSTQGAFAEAFF,no recognition
2,TCR CAVSPGNNQGGKLIF / CASSTQGAGEAFF (TCR) alpha TRAV8-2 TRAJ23 CDR3: CAVSPGNNQGGKLIF beta TRBV19 TRBJ1-1 CDR3: CASSTQGAGEAFF,no recognition
3,TCR CIVRANTGNQFYF / CASSPDGTGVGNTIYF (TCR) alpha TRAV26-1 TRAJ49 CDR3: CIVRANTGNQFYF beta TRBV4-2 TRBJ1-3 CDR3: CASSPDGTGVGNTIYF,no recognition
4,TCR CAMRGQDSGYSTLTF / CASSIVRGLYSNQPQHF (TCR) alpha TRAV14/DV4 TRAJ11 CDR3: CAMRGQDSGYSTLTF beta TRBV19 TRBJ1-5 CDR3: CASSIVRGLYSNQPQHF,no recognition
5,TCR CIVRVGTNQAGTALIF / CASREQGLDYGYTF (TCR) alpha TRAV26-1 TRAJ15 CDR3: CIVRVGTNQAGTALIF beta TRBV19 TRBJ1-2 CDR3: CASREQGLDYGYTF,no recognition
6,TCR CATGSYNTDKLIF / CASSPDGTGVGNTIYF (TCR) alpha TRAV17 TRAJ34 CDR3: CATGSYNTDKLIF beta TRBV4-2 TRBJ1-3 CDR3: CASSPDGTGVGNTIYF,no recognition
7,TCR CALSGDNAGNNRKLIW / CASNSRLAGGHVAYNEQFF (TCR) alpha TRAV19 TRAJ38 CDR3: CALSGDNAGNNRKLIW beta TRBV12-3 TRBJ2-1 CDR3: CASNSRLAGGHVAYNEQFF,no recognition
8,TCR CAVSDNPRVQGAQKLVF / CSAAGTGGAGTEAFF (TCR) alpha TRAV8-6 TRAJ54 CDR3: CAVSDNPRVQGAQKLVF beta TRBV29-1 TRBJ1-1 CDR3: CSAAGTGGAGTEAFF,no recognition
9,TCR CIVRVGTNQGGKLIF / CASSQDRAGTNTEAFF (TCR) alpha TRAV26-1 TRAJ23 CDR3: CIVRVGTNQGGKLIF beta TRBV4-2 TRBJ1-1 CDR3: CASSQDRAGTNTEAFF,no recognition
10,TCR CAVSDGGTSYGKLTF / CASSQGNTGHSPLHF (TCR) alpha TRAV8-6 TRAJ52 CDR3: CAVSDGGTSYGKLTF beta TRBV4-3 TRBJ1-6 CDR3: CASSQGNTGHSPLHF,no recognition
11,TCR CIVRVLTNQGGKLIF / CASSFQGLSTDTQYF (TCR) alpha TRAV26-1 TRAJ23 CDR3: CIVRVLTNQGGKLIF beta TRBV12-3 TRBJ2-3 CDR3: CASSFQGLSTDTQYF,no recognition
12,TCR CLVGDMEYGNKLVF / CASSQAPPSGNEQFF (TCR) alpha TRAV4 TRAJ47 CDR3: CLVGDMEYGNKLVF beta TRBV4-2 TRBJ2-1 CDR3: CASSQAPPSGNEQFF,no recognition

# Biological target: T2, HA69 peptide on HLA …
# Assay: activation reporter or marker
row,Binder,binding result
1,TCR CAGRPTSGGSNYKLTF / CASSGGQAYYGYTF (TCR) alpha TRAV35 TRAJ53 CDR3: CAGRPTSGGSNYKLTF beta TRBV19 TRBJ1-2 CDR3: CASSGGQAYYGYTF,recognises
2,TCR CAAPGANNLFF / CASSQPHRTSVTGELFF (TCR) alpha TRAV13-1 TRAJ36 CDR3: CAAPGANNLFF beta TRBV4-2 TRBJ2-2 CDR3: CASSQPHRTSVTGELFF,recognises
3,TCR846 (TCR) alpha TRAV8-6 TRAJ54 CDR3: CAVSESAQGAQKLVF beta TRBV19 TRBJ2-3 CDR3: CASSRPGLNTDTQYF,recognises
4,TCR CAVSERGAQKLVF / CSAPSGGGRASGANVLTF (TCR) alpha TRAV8-6 TRAJ54 CDR3: CAVSERGAQKLVF beta TRBV20-1 TRBJ2-6 CDR3: CSAPSGGGRASGANVLTF,recognises
5,TCR766 (TCR) alpha TRAV17 TRAJ34 CDR3: CATASYNTDKLIF beta TRBV4-3 TRBJ1-5 CDR3: CASSQGATGGSNQPQHF,recognises
6,TCR839 (TCR) alpha TRAV12-2 TRAJ37 CDR3: CAVNPPWSNTGKLIF beta TRBV19 TRBJ2-5 CDR3: CASTRGVGTSGAKETQYF,recognises
7,TCR819 (TCR) alpha TRAV17 TRAJ34 CDR3: CATAAYNTDKLIF beta TRBV4-3 TRBJ1-2 CDR3: CASSQAMTGGSDYGYTF,recognises
8,TCR CATDAYNTDKLIF / CASSQGAVPAGNTIYF (TCR) alpha TRAV17 TRAJ34 CDR3: CATDAYNTDKLIF beta TRBV4-3 TRBJ1-3 CDR3: CASSQGAVPAGNTIYF,recognises
9,TCR CAASRGTSYDKVIF / CSVDRYYNEQFF (TCR) alpha TRAV13-1 TRAJ50 CDR3: CAASRGTSYDKVIF beta TRBV29-1 TRBJ2-1 CDR3: CSVDRYYNEQFF,recognises
10,TCR CAVGSTDSWGKLQF / CASRLDPTGHMNTEAFF (TCR) alpha TRAV8-3 TRAJ24 CDR3: CAVGSTDSWGKLQF beta TRBV19 TRBJ1-1 CDR3: CASRLDPTGHMNTEAFF,recognises
11,TCR CIASGTYKYIF / CASSKGETGTQWSYEQYF (TCR) alpha TRAV26-1 TRAJ40 CDR3: CIASGTYKYIF beta TRBV4-2 TRBJ2-7 CDR3: CASSKGETGTQWSYEQYF,recognises
12,TCR CAVNRADSWGKLQF / CASSIDKTGHSNQPQHF (TCR) alpha TRAV12-2 TRAJ24 CDR3: CAVNRADSWGKLQF beta TRBV19 TRBJ1-5 CDR3: CASSIDKTGHSNQPQHF,recognises
13,TCR CAAVGMNGGAQKLVF / CASRSQGWGTEAFF (TCR) alpha TRAV13-1 TRAJ54 CDR3: CAAVGMNGGAQKLVF beta TRBV19 TRBJ1-1 CDR3: CASRSQGWGTEAFF,recognises
14,TCR CAAPGANNLFF / CASSGTGGQGYNEQFF (TCR) alpha TRAV13-1 TRAJ36 CDR3: CAAPGANNLFF beta TRBV2 TRBJ2-1 CDR3: CASSGTGGQGYNEQFF,recognises
15,TCR CAASRGTSYDKVIF / CSATGLYNEQFF (TCR) alpha TRAV13-1 TRAJ50 CDR3: CAASRGTSYDKVIF beta TRBV20-1 TRBJ2-1 CDR3: CSATGLYNEQFF,recognises
16,TCR CVHNAGNMLTF / CASSFQGLSTDTQYF (TCR) alpha TRAV25 TRAJ39 CDR3: CVHNAGNMLTF beta TRBV12-3 TRBJ2-3 CDR3: CASSFQGLSTDTQYF,recognises
17,TCR CAVSEKNTGFQKLVF / CASRKGLGDTDTQYF (TCR) alpha TRAV8-6 TRAJ8 CDR3: CAVSEKNTGFQKLVF beta TRBV6-1 TRBJ2-3 CDR3: CASRKGLGDTDTQYF,recognises
